Laboratory results from patent publication US20230357447A1 (JANUX THERAPEUTICS, published 2023).
Where two headings read alike, the source gives them in different places.

How the values were obtained:
[1] = target: T1, anti-CD28 scFv (SEQ ID NO: 9); assay: competition ELISA: peptide titrated against 2 nM anti-CD28 scFv; binding of the scFv to captured biotinylated CD28 antigen is read
T1 construct: also called Anti-CD28 scFv (VH-linker 1-VL)

[2] = target: T1, anti-CD28 scFv (SEQ ID NO: 9); assay: as above; remark: listed apart in the source
[3] = target: T1, anti-CD28 scFv (SEQ ID NO: 9); assay: as above; remark: listed apart in the source
[4] = target: T2, Ab-12, anti-PD-L1xCD28 non-masked antibody in Vh format; assay: competition ELISA: peptide titrated against 5 nM Ab-12; binding of Ab-12 to captured biotinylated CD28 antigen is read
T2 construct: also called PDL1xCD28 non-masked (Vh)

[5] = target: T1, anti-CD28 scFv (SEQ ID NO: 9); assay: competition ELISA: peptide titrated against 2 nM anti-CD28 scFv; binding of the scFv to captured biotinylated CD28 antigen is read; remark: listed apart in the source
[6] = target: T2, Ab-12, anti-PD-L1xCD28 non-masked …; assay: competition ELISA: peptide titrated against 5 nM Ab-12; binding of Ab-12 to captured biotinylated CD28 antigen is read; remark: listed apart in the source
[7] = target: T2, Ab-12, anti-PD-L1xCD28 non-masked …; assay: as above; remark: listed apart in the source
[8] = target: T3, Anti-CD28 scFv (VH-linker 1-VL) (biotinylated (site not stated)); assay: phage ELISA, captured biotinylated scFv; background signal 0.072
T3 construct: biotinylated and captured on neutravidin coated plates in the phage ELISA

[9] = target: T3, Anti-CD28 scFv (VH-linker 1-VL); assay: phage ELISA, scFv wells pre-incubated with soluble CD28 (competitor); background signal 0.072
[10] = target: T3, Anti-CD28 scFv (VH-linker 1-VL); assay: phage ELISA, captured biotinylated scFv; background signal 0.078
[11] = target: T3, Anti-CD28 scFv (VH-linker 1-VL); assay: phage ELISA, scFv wells pre-incubated with soluble CD28 (competitor); background signal 0.078
[12] = target: T3, Anti-CD28 scFv (VH-linker 1-VL); assay: phage ELISA, scFv wells pre-incubated with soluble CD28 (competitor); background signal 0.079
[13] = target: T3, Anti-CD28 scFv (VH-linker 1-VL); assay: phage ELISA, captured biotinylated scFv; background signal 0.079
[14] = target: T3, Anti-CD28 scFv (VH-linker 1-VL); assay: phage ELISA, scFv wells pre-incubated with soluble CD28 (competitor); background signal 0.063
[15] = target: T3, Anti-CD28 scFv (VH-linker 1-VL); assay: phage ELISA, captured biotinylated scFv; background signal 0.063
[16] = target: T3, Anti-CD28 scFv (VH-linker 1-VL); assay: phage ELISA, scFv wells pre-incubated with soluble CD28 (competitor); background signal 0.066
[17] = target: T3, Anti-CD28 scFv (VH-linker 1-VL); assay: phage ELISA, captured biotinylated scFv; background signal 0.066
[18] = target: T3, Anti-CD28 scFv (VH-linker 1-VL); assay: phage ELISA, scFv wells pre-incubated with soluble CD28 (competitor); background signal 0.061
[19] = target: T3, Anti-CD28 scFv (VH-linker 1-VL); assay: phage ELISA, captured biotinylated scFv; background signal 0.061
[20] = target: T3, Anti-CD28 scFv (VH-linker 1-VL); assay: phage ELISA, scFv wells pre-incubated with soluble CD28 (competitor); background signal 0.068
[21] = target: T3, Anti-CD28 scFv (VH-linker 1-VL); assay: phage ELISA, captured biotinylated scFv; background signal 0.068

Work on MDWCPRERWVDCFF [Peptide-51] yielded an IC50 [1] of 1630 nM, an IC50 [2] of 1370 nM and an IC50 [3] of 1650 nM. The IC50 [4] was 2450 nM, the “IC50 (read off the curve)” value [5] was ~2000 nM and the IC50 [6] was 2430 nM. The IC50 [7] was 2620 nM.

With MDWCPRDLWYACFA [Phage-116] the “Phage binding ELISA CD28 scFv signal” value [8] was 2.47 and the “Phage binding ELISA CD28 scFv signal in presence of CD28” value [9] was 0.242.

With MDWCPKDLWDYCFA [Phage-97] the “Phage binding ELISA CD28 scFv signal” value [10] was 2.57 and the “Phage binding ELISA CD28 scFv signal in presence of CD28” value [11] was 0.165.

For MHWCPVDLWYLCYN [Phage-37], the “Phage binding ELISA CD28 scFv signal in presence of CD28” value [12] was 0.417 and the “Phage binding ELISA CD28 scFv signal” value [13] was 2.66.

In the case of MDWCPPYLWNVCFS [Phage-50], the “Phage binding ELISA CD28 scFv signal in presence of CD28” value [14] is reported as 0.1 and the “Phage binding ELISA CD28 scFv signal” value [15] is reported as 1.64.

For MDWCPMDLWYQCFN [Phage-85], the “Phage binding ELISA CD28 scFv signal in presence of CD28” value [14] was 0.187 and the “Phage binding ELISA CD28 scFv signal” value [15] was 2.62.

For MDWCPRDLWDLCFA [Phage-25], the “Phage binding ELISA CD28 scFv signal” value [10] was 2.7 and the “Phage binding ELISA CD28 scFv signal in presence of CD28” value [11] was 0.219.

With MVSCPTTMWNRCFN [Phage-61] the “Phage binding ELISA CD28 scFv signal in presence of CD28” value [12] was 0.072 and the “Phage binding ELISA CD28 scFv signal” value [13] was 1.33.

MDWCPIDLWNECFF [Phage-19] was tested, and the “Phage binding ELISA CD28 scFv signal in presence of CD28” value [16] was 0.187 and the “Phage binding ELISA CD28 scFv signal” value [17] was 2.52.

With MDWCPVHLWSVCFA [Phage-38] the “Phage binding ELISA CD28 scFv signal” value [8] was 2.65 and the “Phage binding ELISA CD28 scFv signal in presence of CD28” value [9] was 0.302.

With IDWCPRYLWDECYN [Phage-48] the “Phage binding ELISA CD28 scFv signal in presence of CD28” value [18] was 0.153 and the “Phage binding ELISA CD28 scFv signal” value [19] was 2.24.

With MNWCPRDMWYQCFN [Phage-54] the “Phage binding ELISA CD28 scFv signal in presence of CD28” value [20] was 0.177 and the “Phage binding ELISA CD28 scFv signal” value [21] was 1.95.

MDWCPRSHWHVCYN [Phage-75] was tested, and the “Phage binding ELISA CD28 scFv signal” value [8] was 1.95 and the “Phage binding ELISA CD28 scFv signal in presence of CD28” value [9] was 0.281.

MDWCPIDMWDQCFN [Phage-40] was tested, and the “Phage binding ELISA CD28 scFv signal in presence of CD28” value [18] was 0.297 and the “Phage binding ELISA CD28 scFv signal” value [19] was 2.66.

For MDWCPIHLWHYCFN [Phage-88], the “Phage binding ELISA CD28 scFv signal” value [10] was 2.6 and the “Phage binding ELISA CD28 scFv signal in presence of CD28” value [11] was 0.453.

MDWCPRDLWSECFF [Phage-28] was tested, and the “Phage binding ELISA CD28 scFv signal in presence of CD28” value [20] was 0.218 and the “Phage binding ELISA CD28 scFv signal” value [21] was 2.57.

In the case of MDWCPRDLWHECFA [Phage-26], the “Phage binding ELISA CD28 scFv signal in presence of CD28” value [14] is reported as 0.277 and the “Phage binding ELISA CD28 scFv signal” value [15] is reported as 2.71.

For MDWCPRALWAECFN [Phage-63], the “Phage binding ELISA CD28 scFv signal in presence of CD28” value [20] was 0.339 and the “Phage binding ELISA CD28 scFv signal” value [21] was 2.68.

MDWCPIYLWDECFN [Phage-106] was tested, and the “Phage binding ELISA CD28 scFv signal in presence of CD28” value [18] was 0.215.

MDWCPRDLWHECFS [Phage-79] was tested, and the “Phage binding ELISA CD28 scFv signal in presence of CD28” value [16] was 0.382 and the “Phage binding ELISA CD28 scFv signal” value [17] was 2.65.

In the case of MDWCPRFMWDECFN [Phage-33], the “Phage binding ELISA CD28 scFv signal in presence of CD28” value [12] is reported as 0.256 and the “Phage binding ELISA CD28 scFv signal” value [13] is reported as 2.68.

MDWCPRPLWHECFS [Phage-45] was tested, and the “Phage binding ELISA CD28 scFv signal” value [10] was 2.35 and the “Phage binding ELISA CD28 scFv signal in presence of CD28” value [11] was 0.121.

MDWCPRHLWAECFF [Phage-86] was tested, and the “Phage binding ELISA CD28 scFv signal in presence of CD28” value [16] was 0.292 and the “Phage binding ELISA CD28 scFv signal” value [17] was 2.61.

For MDWCPRYLWHVCFA [Phage-36], the “Phage binding ELISA CD28 scFv signal” value [8] was 2.48 and the “Phage binding ELISA CD28 scFv signal in presence of CD28” value [9] was 0.226.

MDWCPRYLWFECFA [Phage-114] was tested, and the “Phage binding ELISA CD28 scFv signal in presence of CD28” value [16] was 0.21 and the “Phage binding ELISA CD28 scFv signal” value [17] was 2.5.

MDWCPRDLWAECFN [Phage-107] was tested, and the “Phage binding ELISA CD28 scFv signal in presence of CD28” value [18] was 0.207.

B1: Phage-56 (second entry so labelled, SEQ ID NO: 255) (peptide)
peptide: MDWCPRYLWNECFY
notes: label printed as Phage-56 between Phage-65 and Phage-67, probably Phage-66
In the case of B1, the “Phage binding ELISA CD28 scFv signal in presence of CD28” value [12] is reported as 0.358 and the “Phage binding ELISA CD28 scFv signal” value [13] is reported as 2.54.
